Laboratory results as given in publication PMC3553496 (Science signaling, 2011).

B1: GST-tagged RICS SH3 domain (domain or fragment, human, UniProt A7KAX9 262-320, looked up)
chain: GAAHVIKRYTARAPDELTLEVGDIVSVIDMPPKVLSTWWRGKHGFQVGLFPGHCVELIN
B2: GST-tagged ARHGAP10 SH3 domain (domain or fragment, human, UniProt A1A4S6 731-786, looked up)
chain: RKARAVYPCEAEHSSELSFEIGAIFEDVQTSREPGWLEGTLNGKRGLIPQNYVKLL

Legend:
Test in all cases: peptide or protein array
[1] = molecular target: T1, Chromodomain helicase-DNA binding protein 3 peptide (18-mer) (human)
T1 peptide: YLNLSQEPAHPAMALHAR

[2] = molecular target: T2, Cathepsin B peptide (18-mer) (human)
T2 peptide: CGTFLGGPKPPQRVMFTE

[3] = molecular target: T3, Protein FAM134C peptide (18-mer) (human)
T3 peptide: ALVEVLGPYEPLLSRVQA

[4] = molecular target: T4, Serotransferrin peptide (18-mer) (human)
T4 peptide: NLREGTCPEAPTDECKPV

[5] = molecular target: T5, Calpain-2 catalytic subunit peptide (18-mer) (human)
T5 peptide: AGTLFQDPSFPAIPSALG

Vigilin peptide (18-mer) = molecular target: T6, Vigilin peptide (18-mer) (human)
T6 peptide: PTYKDAFPPLPEKAACLE

[6] = molecular target: T7, SRA stem-loop–interacting RNA binding protein, mitochondrial peptide (18-mer) (human)
T7 peptide: VQVHTRRPKLPQTSDDEK

[7] = molecular target: T8, Eukaryotic translation initiation factor 2-a kinase 3 peptide (18-mer) (human)
T8 peptide: VRISEKFPSSPKALESVT

[8] = molecular target: T9, CDK5 and ABL1 enzyme substrate 1 peptide (18-mer) (human)
T9 peptide: GCIALAAPGTPAAGLAAG

[9] = molecular target: T10, Dynein heavy chain 6 peptide (18-mer) (human)
T10 peptide: EKERPPKPEAPWLPTATW

[10] = molecular target: T11, Protein Shroom 3 peptide (18-mer) (human)
T11 peptide: ASDSGRGPQRPDARLLRS

[11] = molecular target: T12, Large proline-rich protein BAT3 peptide (18-mer) (human)
T12 peptide: QTLGQQVPGFPTAPTRVV

[12] = molecular target: T13, Paxillin-associated protein with ARF GAP activity 3 peptide (18-mer) (human)
T13 peptide: GISQIRPPPLPPQPPSRL

| Binder | relative binding strength (% of the strongest interaction of this SH3 domain) [1] | relative binding strength (% of the strongest interaction of this SH3 domain) [2] | relative binding strength (% of the strongest interaction of this SH3 domain) [3] | relative binding strength (% of the strongest interaction of this SH3 domain) [4] | relative binding strength (% of the strongest interaction of this SH3 domain) [5] | relative binding strength (% of the strongest interaction of this SH3 domain) (Vigilin peptide (18-mer)) | relative binding strength (% of the strongest interaction of this SH3 domain) [6] | relative binding strength (% of the strongest interaction of this SH3 domain) [7] | relative binding strength (% of the strongest interaction of this SH3 domain) [8] | relative binding strength (% of the strongest interaction of this SH3 domain) [9] | relative binding strength (% of the strongest interaction of this SH3 domain) [10] | relative binding strength (% of the strongest interaction of this SH3 domain) [11] | relative binding strength (% of the strongest interaction of this SH3 domain) [12] |
| --- | --- | --- | --- | --- | --- | --- | --- | --- | --- | --- | --- | --- | --- |
| B1 | 88% | 100% | 85% | 49% | 49% | 5% | 7% | 15% | 7% |  |  |  |  |
| B2 |  |  |  |  |  |  |  |  |  | 95% | 37% | 58% | 100% |
